Test [1] has as its target human L1CAM on the surface of human cancer cell lines (human) (UniProt P32004). Kind of test: flow cytometry on SKOV3 cells, PE-labeled isotype control (background), mean of triplicates. (In flow cytometry, cells or beads pass a laser one at a time.)
Test [2] shares this target. Nature of the test: flow cytometry on Panc-1 cells, PE-labeled isotype control (background), mean of triplicates.
Test [3] shares this target. Kind of test: flow cytometry on PC-03 cells, PE-labeled isotype control (background), mean of triplicates.
Test [4] shares this target. Kind of test: flow cytometry on HeLa cells, PE-labeled isotype control (background), mean of triplicates.
The target is the same in test [5]. Kind of test: flow cytometry on SKOV3 cells, PE-labeled antibody, mean of triplicates.
For test [6] the target is unchanged. Nature of the test: flow cytometry on PC-03 cells, against PE-labeled isotype control MOPC-173.
Test [7] shares this target. Nature of the test: flow cytometry on Panc-1 cells, against PE-labeled isotype control MOPC-173.
Test [8] has the same target. Nature of the test: flow cytometry on HeLa cells, against PE-labeled isotype control MOPC-173.
The target is the same in test [9]. Kind of test: flow cytometry on HeLa cells, PE-labeled antibody, mean of triplicates.
Test [10] has the same target. Nature of the test: flow cytometry on Panc-1 cells, PE-labeled antibody, mean of triplicates.
For test [11] the target is unchanged. Nature of the test: flow cytometry on SKOV3 cells, against PE-labeled isotype control MOPC-173.
The target is the same in test [12]. Nature of the test: flow cytometry on PC-03 cells, PE-labeled antibody, mean of triplicates.

Chain of human L1CAM on the surface of human cancer cell lines (human) (P32004 20-1257): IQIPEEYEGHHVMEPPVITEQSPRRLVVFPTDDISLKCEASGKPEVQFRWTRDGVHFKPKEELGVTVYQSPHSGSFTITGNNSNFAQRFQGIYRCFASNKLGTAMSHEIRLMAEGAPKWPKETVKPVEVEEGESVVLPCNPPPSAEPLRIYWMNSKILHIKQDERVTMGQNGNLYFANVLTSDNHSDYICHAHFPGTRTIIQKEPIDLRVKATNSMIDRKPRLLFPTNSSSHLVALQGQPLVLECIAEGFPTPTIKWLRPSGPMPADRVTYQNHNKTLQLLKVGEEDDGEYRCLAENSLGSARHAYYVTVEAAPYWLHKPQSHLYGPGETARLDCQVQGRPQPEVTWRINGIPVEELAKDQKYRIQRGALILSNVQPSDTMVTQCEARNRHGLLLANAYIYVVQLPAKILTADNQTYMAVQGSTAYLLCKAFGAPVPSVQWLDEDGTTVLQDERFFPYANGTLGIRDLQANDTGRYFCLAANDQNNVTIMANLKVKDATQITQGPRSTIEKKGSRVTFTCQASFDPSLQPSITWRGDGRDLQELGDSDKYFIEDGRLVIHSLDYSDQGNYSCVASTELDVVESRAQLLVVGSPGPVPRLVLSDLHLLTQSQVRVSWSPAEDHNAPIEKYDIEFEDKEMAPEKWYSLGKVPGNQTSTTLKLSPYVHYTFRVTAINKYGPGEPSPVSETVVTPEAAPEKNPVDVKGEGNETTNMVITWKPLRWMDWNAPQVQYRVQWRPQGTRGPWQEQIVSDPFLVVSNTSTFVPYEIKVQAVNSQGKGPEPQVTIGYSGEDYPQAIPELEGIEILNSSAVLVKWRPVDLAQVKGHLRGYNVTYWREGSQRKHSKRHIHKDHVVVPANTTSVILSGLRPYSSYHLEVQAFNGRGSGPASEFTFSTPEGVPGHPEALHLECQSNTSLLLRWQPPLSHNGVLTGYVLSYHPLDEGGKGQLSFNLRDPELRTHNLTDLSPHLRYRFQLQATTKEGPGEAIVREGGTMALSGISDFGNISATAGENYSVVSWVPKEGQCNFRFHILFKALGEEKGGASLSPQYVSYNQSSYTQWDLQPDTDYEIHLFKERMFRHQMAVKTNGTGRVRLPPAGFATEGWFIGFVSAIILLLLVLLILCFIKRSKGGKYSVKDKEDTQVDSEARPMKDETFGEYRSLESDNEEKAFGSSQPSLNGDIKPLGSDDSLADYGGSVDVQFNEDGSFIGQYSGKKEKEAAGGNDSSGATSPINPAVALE

For “PE-labeled mouse IgG2a (κ) (clone MOPC-173, BioLegend) (antibody)”, the MFI isotype control antibody in test [1] is 8680 MFI; in test [2], 13100 MFI; in test [3], 9420 MFI; in [4] it was 9140 MFI.
As to “phycoerythrin (PE)-labeled anti-human L1CAM antibody (clone L1-OV198.5, BioLegend)”, the MFI anti-L1CAM antibody in test [5] was 1.5e+06 MFI; in test [9], 1.22e+06 MFI; in test [10], 183000 MFI; in test [12], 46400 MFI. The Fold increase in MFI (anti-L1CAM vs isotype) in test [6] came out at 5 fold; in test [7] it was 14 fold; in test [8], 133 fold; in test [11], 173 fold.

The values above are taken from patent publication US20260234245A1.
